Where no end group is shown, it is not given here.
What was measured:
PSMA Fab (006 PSMA Fab) [1] = target: T1, PSMA Fab (006 PSMA Fab) (biotinylated (site not stated)); assay: clonal phage ELISA on captured PSMA Fab pre-incubated with PSMA antigen as competitor;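 also: crude clonal phage supernatants added to wells without washing away the PSMA competitor, bound phage detected by HRP-conjugated anti-M13 antibody, reference wells received blocking buffer only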
T1 construct: In the clonal phage ELISA the biotinylated PSMA Fab was captured on neutravidin coated plates; also called Anti-PSMA Fab

PSMA Fab (006 PSMA Fab) [2] = target: T1, PSMA Fab (006 PSMA Fab); assay: clonal phage ELISA on biotinylated PSMA Fab captured on neutravidin, anti-M13 HRP detection, no PSMA
Protocol: (§1) Clonal phage were harvested as crude supernatants and screened via standard ELISAs. […] Prior to the addition of clonal phage. wells were incubated with blocking buffer and PSMA antigen or blocking buffer alone. Without washing or aspirating, clonal phage supernatants were then added to the wells and incubated for a short time. Wells were then washed followed by detection of bound phage using a horse radish conjugated anti-M13 antibody.

PSMA Fab [3] = target: T2, PSMA Fab (biotinylated (site not stated)); assay: clonal phage ELISA on captured PSMA Fab pre-incubated with PSMA antigen as competitor, anti-M13-HRP detection;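 also: wells blocked with buffer plus PSMA antigen before phage addition, with blocking buffer alone as the no-competitor control, bound phage detected after washing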
T2 construct: Biotinylated PSMA Fab captured on neutravidin coated plates in the phage ELISA; also called anti-PSMA Fab; 006 PSMA Fab

PSMA Fab [4] = target: T2, PSMA Fab; assay: clonal phage ELISA on biotinylated PSMA Fab captured on neutravidin plates, anti-M13-HRP detection;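 also: crude clonal phage supernatants added to wells preincubated with PSMA antigen or with blocking buffer only (no wash between), briefly incubated, then washed before detecting bound phage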
Protocol: as §1

PSMA Fab (006 PSMA Fab) [5] = target: T3, PSMA Fab (006 PSMA Fab); assay: phage ELISA: clonal phage supernatant on biotinylated PSMA Fab captured on neutravidin plate, blocking buffer alone; anti-M13 HRP detection;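 also: crude clonal phage supernatants added to wells preincubated with blocking buffer, incubated briefly, bound phage detected with a horseradish-conjugated anti-M13 antibody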
T3 construct: also called Anti-PSMA Fab
Protocol: as §1

PSMA Fab (006 PSMA Fab) [6] = target: T3, PSMA Fab (006 PSMA Fab); assay: phage ELISA: clonal phage supernatant on biotinylated PSMA Fab captured on neutravidin plate, wells pre-incubated with PSMA antigen as competitor; anti-M13 HRP detection
Protocol: as §1

Binder	Phage binding ELISA signal, Anti-PSMA Fab with PSMA antigen (PSMA Fab (006 PSMA Fab) [1])	Phage binding ELISA signal, Anti-PSMA Fab (PSMA Fab (006 PSMA Fab) [2])	phage binding ELISA signal (PSMA Fab (006 PSMA Fab) [5])	phage binding ELISA signal (PSMA Fab (006 PSMA Fab) [6])	also measured
DHVMCKPKWMCEGF [Phage-3367]	0.0947	1.82	–	–	–
VEPLCRPFWMCVGF [Phage-3382]	–	–	–	–	Phage binding ELISA signal, Anti-PSMA Fab with PSMA antigen (PSMA Fab [3]): 0.127; Phage binding ELISA signal, Anti-PSMA Fab (PSMA Fab [4]): 1.81
GQMYCKPSWMCNGF (tested as crude clonal phage supernatant) [Phage-3354 (Peptide-180 library peptide)]	–	–	1.82	0.0788	–
IAVMCKPEWMCVGF [Phage-3368]	0.0964	1.82	–	–	–
FPVRCVPEWMCSGF (tested as crude clonal phage supernatant) [Phage-3360 (Peptide-180 library peptide)]	–	–	1.82	0.0748	–
EMRYCVPRWMCEGF [Phage-3381]	–	–	–	–	Phage binding ELISA signal, Anti-PSMA Fab with PSMA antigen (PSMA Fab [3]): 0.095; Phage binding ELISA signal, Anti-PSMA Fab (PSMA Fab [4]): 1.81
FEMLCRPIWMCTGF [Phage-3365]	0.14	1.82	–	–	–
DFAMCRPAWMCGGF (cysteine pairing not given here; also: fused to pIII of bacteriophage) [Phage-3372]	0.0683	1.81	–	–	–
GHPICVPSWMCEGF [Phage-3373]	0.0862	1.81	–	–	–
LSWHCIPEWMCAGF (cysteine pairing not given here; also: fused to pIII of bacteriophage, tested as crude clonal phage supernatant) [Phage-3356 (Peptide-180 library peptide)]	–	–	1.82	0.07	–
NGALCKPVWMCQGF [Phage-3383]	–	–	–	–	Phage binding ELISA signal, Anti-PSMA Fab with PSMA antigen (PSMA Fab [3]): 0.0702; Phage binding ELISA signal, Anti-PSMA Fab (PSMA Fab [4]): 1.81
SEHFCRPAWMCTGF (tested as crude clonal phage supernatant) [Phage-3353 (Peptide-180 library peptide)]	–	–	1.82	0.0801	–
VESWCIPAWMCTGF (tested as crude clonal phage supernatant) [Phage-3359 (Peptide-180 library peptide)]	–	–	1.82	0.0794	–
EYIRCVPSWMCLDL [Phage-3376]	0.0615	1.81	–	–	–
DTIQCKPAWMCVGF (tested as crude clonal phage supernatant) [Phage-3357 (Peptide-180 library peptide)]	–	–	1.82	0.102	–
FTALCKPMWMCRGF [Phage-3386]	–	–	–	–	Phage binding ELISA signal, Anti-PSMA Fab with PSMA antigen (PSMA Fab [3]): 0.0718; Phage binding ELISA signal, Anti-PSMA Fab (PSMA Fab [4]): 1.81
LEVHCRPSWMCVGF [Phage-3384]	–	–	–	–	Phage binding ELISA signal, Anti-PSMA Fab with PSMA antigen (PSMA Fab [3]): 0.062; Phage binding ELISA signal, Anti-PSMA Fab (PSMA Fab [4]): 1.81

Binder	Phage binding ELISA signal, Anti-PSMA Fab with PSMA antigen (PSMA Fab (006 PSMA Fab) [1])	Phage binding ELISA signal, Anti-PSMA Fab (PSMA Fab (006 PSMA Fab) [2])	phage binding ELISA signal (PSMA Fab (006 PSMA Fab) [5])	phage binding ELISA signal (PSMA Fab (006 PSMA Fab) [6])	also measured
HTPICVPVWMCAGF (cysteine pairing not given here; also: fused to pIII of bacteriophage) [Phage-3369]	0.0746	1.82	–	–	–
HDLRCVPEWMCYGL [Phage-3377]	0.0734	1.81	–	–	–
VIIKCEPRWMCEGF (tested as crude clonal phage supernatant) [Phage-3358 (Peptide-180 library peptide)]	–	–	1.82	0.068	–
QVPMCKPMWMCAGF (cysteine pairing not given here; also: fused to pIII of bacteriophage) [Phage-3379]	–	–	–	–	Phage binding ELISA signal, Anti-PSMA Fab with PSMA antigen (PSMA Fab [3]): 0.0921; Phage binding ELISA signal, Anti-PSMA Fab (PSMA Fab [4]): 1.81
QLPMCVPRWMCDGW [Phage-3366]	0.129	1.82	–	–	–
IGLLCAPKWMCEGF (cysteine pairing not given here; also: fused to pIII of bacteriophage, tested as crude clonal phage supernatant) [Phage-3355 (Peptide-180 library peptide)]	–	–	1.82	0.0676	–
EDVLCKPLWMCFGF (tested as crude clonal phage supernatant) [Phage-3363 (Peptide-180 library peptide)]	–	–	1.82	0.0901	–
HDLSCVPRWMCDGF (tested as crude clonal phage supernatant) [Phage-3362 (Peptide-180 library peptide)]	–	–	1.82	0.0671	–
LSIKCVPDWMCTGF [Phage-3370]	0.09	1.81	–	–	–
AEVRCVPQWMCFGL [Phage-3380]	–	–	–	–	Phage binding ELISA signal, Anti-PSMA Fab with PSMA antigen (PSMA Fab [3]): 0.0952; Phage binding ELISA signal, Anti-PSMA Fab (PSMA Fab [4]): 1.81
PHAICKPAWMCVGL [Phage-3371]	0.0913	1.81	–	–	–
WMPYCVPHWMCDGF (tested as crude clonal phage supernatant) [Phage-3361 (Peptide-180 library peptide)]	–	–	1.82	0.119	–
ESNFCVPAWMCTGF (cysteine pairing not given here; also: fused to pIII of bacteriophage) [Phage-3364]	0.073	1.82	–	–	–
DVRLCRPSWMCSGF [Phage-3378]	–	–	–	–	Phage binding ELISA signal, Anti-PSMA Fab with PSMA antigen (PSMA Fab [3]): 0.0682; Phage binding ELISA signal, Anti-PSMA Fab (PSMA Fab [4]): 1.81
IDKMCVPSWMCWGF [Phage-3374]	0.0876	1.81	–	–	–
QEIYCVPEWMCSWF [Phage-3375]	0.0642	1.81	–	–	–
ILPQCVPSWMCEGF [Phage-3385]	–	–	–	–	Phage binding ELISA signal, Anti-PSMA Fab with PSMA antigen (PSMA Fab [3]): 0.106; Phage binding ELISA signal, Anti-PSMA Fab (PSMA Fab [4]): 1.81

— patent publication US20260242478A1 (published 2026)
